# Assay results published in US20150267232A1, “IN VIVO AND IN VITRO CARBENE INSERTION AND NITRENE TRANSFER REACTIONS CATALYZED BY HEME ENZYMES” (California Institute of Technology, priority 2012, published 2015).
# B1: ABC-T268A: P450BM3 variant: T268A, C400S (protein, listed as Bacillus megaterium)
# chain: TIKEMPQPKTFGELKNLPLLNTDKPVQALMKIADELGEIFKFEAPGRVTRYLSSQRLIKEACDESRFDKNLSQALKFVRDFAGDGLFTSWTHEKNWKKAHNILLPSFSQQAMKGYHAMMVDIAVQLVQKWERLNADEHIEVPEDMTRLTLDTIGLCGFNYRFNSFYRDQPHPFITSMVRALDEAMNKLQRANPDDPAYDENKRQFQEDIKVMNDLVDKIIADRKASGEQSDDLLTHMLNGKDPETGEPLDDENIRYQIITFLIAGHEATSGLLSFALYFLVKNPHVLQKAAEEAARVLVDPVPSYKQVKQLKYVGMVLNEALRLWPTAPAFSLYAKEDTVLGGEYPLEKGDELMVLIPQLHRDKTIWGDDVEEFRPERFENPSAIPQHAFKPFGNGQRASIGQQFALHEATLVLGMMLKHFDFEDHTNYELDIKETLTLKPEGFVVKAKSKKIPLGGIPSPSTEQSAKKVRKKAENAHNTPLLVLYGSNMGTAEGTARDLADIAMSKGFAPQVATLDSHAGNLPREGAVLIVTASYNGHPPDNAKQFVDWLDQASADEVKGVRYSVFGCGDKNWATTYQKVPAFIDETLAAKGAENIADRGEADASDDFEGTYEEWREHMWSDVAAYFNLDIENSEDNKSTLSLQFVDSAADMPLAKMHGAFSTNVVASKELQQPGSARSTRHLEIELPKEASYQEGDHLGVIPRNYEGIVNRVTARFGLDASQQIRLEAEEEKLAHLPLAKTVSVEELLQYVELQDPVTRTQLRAMAAKTVCPPHKVELEALLEKQAYKEQVLAKRLTMLELLEKYPACEMKFSEFIALLPSIRPRYYSISSSPRVDEKQASITVSVVSGEAWSGYGEYKGIASNYLAELQEGDTITCFISTPQSEFTLPKDPETPLIMVGPGTGVAPFRGFVQARKQLKEQGQSLGEAHLYFGCRSPHEDYLYQEELENAQSEGIITLHTAFSRMPNQPKTYVQHVMEQDGKKLIELLDQGAHFYICGDGSQMAPAVEATLMKSYADVHQVSEADARLWLQQLEEKGRYAKDVWAG
# modifications: cytochrome P450NADPH-P-450 reductase precursor, cytochrome P450 (BM3), CYP102A1
# notes: P450BM3 variant: T268A, C400S
# Experiments:
# [1] = Small-scale anaerobic C—H amination with purified enzymes, azide 1; format: biochemical
# How it was run: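 Purified P450 or P411 enzymes (0.1-0.5% catalyst loading) in 400 μL reactions of 0.1 M potassium phosphate pH 8.0 with a catalase/glucose oxidase oxygen-depletion system were made anaerobic under argon, given 10 μL of 80 mM arylsulfonyl azide in DMSO, and stirred 24 h at room temperature. After HCl quench and acetonitrile addition, sultam was quantified by HPLC at 220 nm against an internal standard; enantioselectivity was measured by chiral HPLC.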
# [2] = Small-scale anaerobic C—H amination with purified enzymes, azide 4; format: biochemical; settings: 0.1% loading; azide 4
# Procedure: Hemin also was capable of catalyzing this reaction when reduced with dithionite (Table 13).
# Small scale reactions containing either 0.1% loading of ABC-CIS or ABC-T268A or 1% loading of hemin with azides 1, 4, or 6 according to standard procedures.
# Small-scale reactions (400 μL) were conducted in 2 mL crimp vials (Agilent Technologies, San Diego, Calif.) containing buffer (0.1 M potassium phosphate pH 8.0), enzyme (0.1-0.5% catalyst loading) and oxygen depletion system (10× stock solution containing 14,000 U/mL catalase, 1,000 U/mL glucose oxidase dissolved in 0.1 M KPi pH 8.0). Enzyme (P450 or P411) solution and oxygen depletion mixture were added to the vial with a small stir bar before crimp-sealing. Portions of phosphate buffer (190 μL, 0.1 M, pH=8.0), glucose (40 μL, 250 mM) and NADPH (40 μL, 20 mM), or multiples thereof, were combined in a larger crimp sealed vial and degassed by sparging with argon for at least 5 min. In the meantime, the headspace of the sealed 2 mL reaction vial with the P450 solution was made anaerobic by flushing argon over the protein solution (with no bubbling). The buffer/reductant/glucose solution (270 μL) was syringed into the reaction vial with continuous argon purge of the vial headspace. An arylsulfonyl azide solution in DMSO (10 μL, 80 mM) was added to the reaction vial via a glass syringe, and the reaction was left stirring for 24 h at room temperature under positive argon pressure. Final concentrations of the reagents were typically: 2 mM arylsulfonyl azide, 2 mM NADPH, 25 mM glucose, 2 or 10 μM P450. Reactions were quenched by adding 30 μL 3 M HCl under argon. To the vials were then added acetonitrile (430 uL) and internal standard (o-toluenesulfonamide 10 mM in 50% acetonitrile 50% water, 1 mM final concentration). […] A portion (20 μL) of the supernatant was then analyzed by HPLC. […] Sultam formation was quantified comparison of integrated peak areas of internal standard and sultam at 220 nm to a calibration curve made using synthetically produced sultam and internal standard.
# [3] = CS heme-Na2S2O4 + NADPH (heme domain)
# [4] = Complete system (CS), holoenzyme
molecule,measurement,setting,value
B1,Product (3),"[1]; 0.1% loading, azide 1, TTN",135
same,TTN,"[1]; 0.1 mol % catalyst loading (2 μM), 2 mM azide 1, 2 mM NADPH, benzosultam 3",120
same,% ee,"[1]; 0.1 mol % catalyst loading, (S−R)/(S+R), benzosultam 3",58%
same,% activity,[1]; Boiled P450heme,9.1%
same,% ee,[1]; Boiled P450heme,3%
same,TTN,[1]; Boiled P450heme,10
same,% activity,[1]; Boiled P450holo,30%
same,% ee,[1]; Boiled P450holo,1%
same,TTN,[1]; Boiled P450holo,33
same,% activity,[1]; CS + CO,4.4%
same,TTN,[1]; CS + CO,5
same,% activity,[1]; CS aerobic,9.1%
same,% ee,[1]; CS aerobic,60%
same,TTN,[1]; CS aerobic,10
same,% activity,[1]; CS heme,145%
same,% ee,[1]; CS heme,91%
same,TTN,"[1]; CS heme (heme domain, 2 mM Na2S2O4)",160
same,% activity,[1]; CS heme + CO,0%
same,TTN,[1]; CS heme + CO,0
same,% activity,[1]; CS heme aerobic,0%
same,TTN,[1]; CS heme aerobic,0
same,% activity,[1]; [3],3.6%
same,TTN,[1]; [3],4
same,% ee,[1]; CS-NADPH + Na2S2O4,44%
same,TTN,[1]; CS-NADPH + Na2S2O4,130
same,% activity,"[1]; CS-NADPH + Na2S2O4, residual activity (CS = 100%)",120%
same,% ee,[1]; [4],38%
same,TTN,[1]; [4],110
same,activity with reductant NADPH,"[1]; NADPH (2 mM), 0.1 mol % loading, azide 1",110
same,activity with reductant Dithionite,"[1]; dithionite (2 mM), 0.1 mol % loading, azide 1",110
same,Product (5),[2],22
